Consider ten sequences from US20220162583.

What all share (assay): cell_activity
In series [1] the test system is nd4 mito-nickase (1) left TALE-FokI. The following applies: zebrafish embryos; both nd4 nickase pairs co-injected.
Series [2] deals with nd4 mito-nickase (2) left TALE-FokI. The following applies: zebrafish embryos; both nd4 nickase pairs co-injected.
Series [3] concerns nd5 mito-nickase right TALE-FokI. The following applies: nearly 30%; with atp8 nickase.
The subject of series [4] is nd4 mitoTALE nuclease left. As to conditions: with nd5 and atp8 nickases; deletions also with nuclease alone.
In series [5] the test system is nd4 mito-nickase (2) right TALE-FokI. The following applies: zebrafish embryos; both nd4 nickase pairs co-injected.
Series [6] deals with nd5 mito-nickase left TALE-FokI. As to conditions: nearly 30%; with atp8 nickase.
Series [7] deals with atp8 mito-nickase left TALE-FokI. The following applies: nearly 30%; with nd5 nickase.
The subject of series [8] is nd4 mitoTALE nuclease right. As to conditions: with nd5 and atp8 nickases; deletions also with nuclease alone.
Series [9] has as its system atp8 mito-nickase right TALE-FokI. The following applies: nearly 30%; with nd5 nickase.
For series [10], the system named is nd4 mito-nickase (1) right TALE-FokI. The following applies: zebrafish embryos; both nd4 nickase pairs co-injected.

Consider “AAGTTCTGGTTTTAA (double strand) [nd4 nickase (1) left site]”, for which the activity (% embryos with deletion) in series [1] is 50. “ACGAGTTAGAAGCAT (double strand) [nd4 nickase (2) left site]”: the activity (% embryos with deletion) in [2] turned out to be 50. In series [3], “AGGGCTAATGATAGT (double strand) [nd5 nickase right site]” returned an activity (% embryos with deletion) of 30.

For the sequence “CGGGTAATAATGATT (double strand) [nd4 nuclease left site]”, the activity (% embryos with deletion) in [4] is above 90.

“GACTAAAATGAACCT (double strand) [nd4 nickase (2) right site]” returned an activity (% embryos with deletion) in series [5] of 50. In the case of “GCTAGATGTGGTTGG (double strand) [nd5 nickase left site]”, the activity (% embryos with deletion) in [6] is 30. Regarding “TAGGTTGAATGTGAT (double strand) [atp8 nickase left site]”, in series [7], the activity (% embryos with deletion) is 30.

Regarding “TATATTCGAAGCTAC (double strand) [nd4 nuclease right site]”, the activity (% embryos with deletion) in [8] is above 90. With “TCCTTACTATTATTC (double strand) [atp8 nickase right site]”, the activity (% embryos with deletion) in [9] stood at 30.

“TTACACCTAATTCCT (double strand) [nd4 nickase (1) right site]”: in series [10], the activity (% embryos with deletion) is 50.
